Assay results as given in US20160194394A1 (GOVERNING COUNCIL OF THE UNIVERSITY OF TORONTO, published 2016).
Positions count from the first letter of the chain named.

B1: C8 (Fab)
light: DIQMTQSPSSLSASVGDRVTITCRASQSVSSAVAWYQQKPGKAPKLLIYSASSLYSGVPSRFSGSRSGTDFTLTISSLQPEDFATYYCQQYSPSSFLITFGQGTKVEIKRTVAAPSVFIFPPSDSQLKSGTASVVCLLNNFYPREAKVQWKVDNALQSGNSQESVTEQDSKDSTYSLSSTLTLSKADYEKHKVYACEVTHQGLSSPVTKSFNRGECGGS
heavy: EVQLVESGGGLVQPGGSLRLSCAASGFNIYYSYIHWVRQAPGKGLEWVASISSSSGYTSYADSVKGRFTISADTSKNTAYLQMNSLRAEDTAVYYCARSYGYYYYFYYYGGMDYWGQGTLVTVSSASTKGPSVFPLAPSSKSTSGGTAALGCLVKDYFPEPVTVSWNSGALTSGVHTFPAVLQSSGLYSLSSVVTVPSSSLGTQTYICNVNHKPSNTKVDKKVEPKSC
notes: selection round 2; also called Fzd7-R2-C8
B2: D2 (Fab)
light: B1 light with Y91S, S92Y, P93S, S94G, S95W, F96G, L97P, I98F
heavy: EVQLVESGGGLVQPGGSLRLSCAASGFNISSSYIHWVRQAPGKGLEWVASISSSSSYTYYADSVKGRFTISADTSKNTAYLQMNSLRAEDTAVYYCARSAYPFSWSYPSYVGYYSGLDYWGQGTLVTVSSASTKGPSVFPLAPSSKSTSGGTAALGCLVKDYFPEPVTVSWNSGALTSGVHTFPAVLQSSGLYSLSSVVTVPSSSLGTQTYICNVNHKPSNTKVDKKVEPKSC
notes: selection round 2; also called Fzd7-R2-D2
B3: D5 (Fab)
light: DIQMTQSPSSLSASVGDRVTITCRASQSVSSAVAWYQQKPGKAPKLLIYSASSLYSGVPSRFSGSRSGTDFTLTISSLQPEDFATYYCQQAYYLITFGQGTKVEIKRTVAAPSVFIFPPSDSQLKSGTASVVCLLNNFYPREAKVQWKVDNALQSGNSQESVTEQDSKDSTYSLSSTLTLSKADYEKHKVYACEVTHQGLSSPVTKSFNRGECGGS
heavy: EVQLVESGGGLVQPGGSLRLSCAASGFNIYYSSIHWVRQAPGKGLEWVASIYPSSGYTYYADSVKGRFTISADTSKNTAYLQMNSLRAEDTAVYYCARWAPHSSSWWSVYGWSAWAFDYWGQGTLVTVSSASTKGPSVFPLAPSSKSTSGGTAALGCLVKDYFPEPVTVSWNSGALTSGVHTFPAVLQSSGLYSLSSVVTVPSSSLGTQTYICNVNHKPSNTKVDKKVEPKSC
notes: selection round 2; also called Fzd7-R2-D5
B4: H11 (Fab)
light: B3 light with A91Y, Y92S, Y93G, L94P
heavy: EVQLVESGGGLVQPGGSLRLSCAASGFNISSSYIHWVRQAPGKGLEWVAYIYPYYSYTYYADSVKGRFTISADTSKNTAYLQMNSLRAEDTAVYYCARSVTYHSSGWVPPWYWGYAFDYWGQGTLVTVSSASTKGPSVFPLAPSSKSTSGGTAALGCLVKDYFPEPVTVSWNSGALTSGVHTFPAVLQSSGLYSLSSVVTVPSSSLGTQTYICNVNHKPSNTKVDKKVEPKSC
notes: selection round 2; also called Fzd7-R2-H11
B5: B8 (Fab)
light: DIQMTQSPSSLSASVGDRVTITCRASQSVSSAVAWYQQKPGKAPKLLIYSASSLYSGVPSRFSGSRSGTDFTLTISSLQPEDFATYYCQQSSYSLITFGQGTKVEIKRTVAAPSVFIFPPSDSQLKSGTASVVCLLNNFYPREAKVQWKVDNALQSGNSQESVTEQDSKDSTYSLSSTLTLSKADYEKHKVYACEVTHQGLSSPVTKSFNRGECGGS
heavy: EVQLVESGGGLVQPGGSLRLSCAASGFNISSYYIHWVRQAPGKGLEWVASISSSYGYTYYADSVKGRFTISADTSKNTAYLQMNSLRAEDTAVYYCARPWSHYSSGAYWHPWSGHALDYWGQGTLVTVSSASTKGPSVFPLAPSSKSTSGGTAALGCLVKDYFPEPVTVSWNSGALTSGVHTFPAVLQSSGLYSLSSVVTVPSSSLGTQTYICNVNHKPSNTKVDKKVEPKSC
notes: selection round 2; also called Fzd7-R2-B8
B6: D6 (Fab)
light: B5 light with S91F, S92Y
heavy: EVQLVESGGGLVQPGGSLRLSCAASGFNISYSSMHWVRQAPGKGLEWVASIYSSYSYTSYADSVKGRFTISADTSKNTAYLQMNSLRAEDTAVYYCARSYGPWAPGWAAYWGGYGMDYWGQGTLVTVSSASTKGPSVFPLAPSSKSTSGGTAALGCLVKDYFPEPVTVSWNSGALTSGVHTFPAVLQSSGLYSLSSVVTVPSSSLGTQTYICNVNHKPSNTKVDKKVEPKSC
notes: selection round 2; also called Fzd7-R2-D6
B7: C11 (Fab)
light: DIQMTQSPSSLSASVGDRVTITCRASQSVSSAVAWYQQKPGKAPKLLIYSASSLYSGVPSRFSGSRSGTDFTLTISSLQPEDFATYYCQQGHYYPYYLFTFGQGTKVEIKRTVAAPSVFIFPPSDSQLKSGTASVVCLLNNFYPREAKVQWKVDNALQSGNSQESVTEQDSKDSTYSLSSTLTLSKADYEKHKVYACEVTHQGLSSPVTKSFNRGECGGS
heavy: EVQLVESGGGLVQPGGSLRLSCAASGFNIYYSYMHWVRQAPGKGLEWVASIYSYSGYTYYADSVKGRFTISADTSKNTAYLQMNSLRAEDTAVYYCARSVWGYPYGMDYWGQGTLVTVSSASTKGPSVFPLAPSSKSTSGGTAALGCLVKDYFPEPVTVSWNSGALTSGVHTFPAVLQSSGLYSLSSVVTVPSSSLGTQTYICNVNHKPSNTKVDKKVEPKSC
notes: selection round 2; also called Fzd7-R2-C11
B8: A10 (Fab, V domains shown)
VH: EVQLVESGGGLVQPGGSLRLSCAASGFNFSSSSIHWVRQAPGKGLEWVAYIYPYYGYTYYADSVKGRFTISADTSKNTAYLQMNSLRAEDTAVYYCARWVVAGHYGMDYWGQGTLVTVSS
VL: DIQMTQSPSSLSASVGDRVTITCRASQSVSSAVAWYQQKPGKAPKLLIYSASSLYSGVPSRFSGSRSGTDFTLTISSLQPEDFATYYCQQSYWPGWPITFGQGTKVEIKR
notes: selection round 3; also called Fzd7-R3-A10
B9: B12 (Fab, V domains shown)
VH: EVQLVESGGGLVQPGGSLRLSCAASGFNLSYSYMHWVRQAPGKGLEWVASISSSYGYTYYADSVKGRFTISADTSKNTAYLQMNSLRAEDTAVYYCARAAGPYWYSYWYSAMDYWGQGTLVTVSS
VL: DIQMTQSPSSLSASVGDRVTITCRASQSVSSAVAWYQQKPGKAPKLLIYSASSLYSGVPSRFSGSRSGTDFTLTISSLQPEDFATYYCQQSSYSLITFGQGTKVEIKR
notes: selection round 2; also called Fzd7-R2-B12

Molecular target: T1, recombinant Frizzled receptor 7 (FZD7) cysteine-rich domain (CRD) fused to the Fc region of human IgG (human, UniProt O75084 33-185)
Assay: ELISA, 1ug/ml (20nM) Fab
Procedure: (§1) FIG. 2B is a table depicting the binding of purified Fabs to purified FZD7-Fc measured by ELISA. Fabs purified from 25 ml bacterial cultures were assayed for binding to FZD7-Fc fusion protein (R&D systems) and Fc protein. ELISA plates (384 well) were coated with 2 ug/ml of protein in PBS overnight at four degrees. Wells were blocked with 0.5% BSA/PBS for 1 hour at room temperature, washed three times with 0.05% Tween20/PBS (wash buffer), and then primary dilutions of Fabs in 0.5% BSA/0.05% Tween20/PBS (dilution buffer) were added at indicated concentrations. Fabs were incubated for 1 hour at room temperature, wells were washed six times, and anti-FLAG-HRP (Sigma) was added at 1:5000 in dilution buffer. Secondary antibody was incubated for 45 minutes at room temperature, and wells were washed six times and developed with TMB substrate with an acid stop. The absorbance at 450 nm was read. n.t.=not tested.

Binder	OD 450
B1	0.55
B2	0.5
B3	2.65
B4	3.18
B5	0.24
B6	2.98
B7	0.24

Molecular target: T2, Fc control protein
T2 construct: also called Fc protein; control Fc protein
Assay: ELISA, 1ug/ml (20nM) Fab
Procedure: as §1

Binder	OD 450
B1	0.05
B2	0.06
B3	0.06
B4	0.05
B5	0.05
B6	0.06
B7	0.07

Molecular target: T1, recombinant Frizzled receptor 7 (FZD7) …
Assay: ELISA, 10ug/ml (200nM) Fab
Procedure: as §1

Binder	OD 450
B1	1.36
B2	1.6
B3	3.21
B4	3.23
B5	1.16
B6	3.09
B7	1.09

Molecular target: T2, Fc control protein
Assay: ELISA, 10ug/ml (200nM) Fab
Procedure: as §1

Binder	OD 450
B1	0.09
B2	0.05
B3	0.17
B4	0.06
B5	0.05
B6	0.12
B7	0.06

Molecular target: T2, Fc control protein
Assay: ELISA, 1ug/ml (20nM) Fab [cont'd]
Procedure: as §1

Binder	OD 450
B8	0.05
B9	0.05

Molecular target: T2, Fc control protein
Assay: ELISA, 10ug/ml (200nM) Fab [cont'd]
Procedure: as §1

Binder	OD 450
B8	0.05
B9	0.06

Molecular target: T3, FZD7 receptor expressed on cells (full-length) (UniProt O75084 33-574, limits assumed)
T3 construct: whole, on cells; MDA MB 231 cells may carry other Frizzled receptors too; also called full-length FZD7 receptor; endogenous receptor on MDA MB 231 cells
Assay: flow cytometry, 200 nM Fab, MDA MB 231
Procedure: (§2) FIG. 3 is a table depicting the binding of the purified Fabs to cells expressing FZD7 (flow cytometry). Small scale Fabs were assayed for binding to full-length FZD7 receptor to an over-expression line in MDA MB 231 cells. In parallel, Fabs were assayed for binding to endogenous receptor expressed on the MDA MB 231 cells. Cells were harvested using an EDTA solution, blocked in 2% FBS/PBS (stain buffer), and stained with 200 nM Fab for 30 min on ice. Cells were washed two times with stain buffer and incubated with anti-F(ab′)₂-APC secondary antibody (Jackson Immuno) at 1:1000 for 15 minutes on ice. All antibodies were diluted in stain buffer. Cells were washed three times with stain buffer and then fixed with 1% paraformaldehye for analysis by flow cytometry. […] The percent of the cell population within the positive gates is indicated.

Binder	% population within the positive gate [%]
B1	2.7
B2	0.8
B3	3.9
B5	2.8
B6	35.3
B7	1

Molecular target: T3, FZD7 receptor expressed on cells …
Assay: flow cytometry, 200 nM Fab, MDA MB 231 [cont'd]
Procedure: as §2

Binder	% population within the positive gate [%]
B9	0.9

Molecular target: T3, FZD7 receptor expressed on cells …
Assay: flow cytometry, 200 nM Fab, FZD7 over-expression line (MDA MB 231)
Procedure: as §2

Binder	% population within the positive gate [%]
B1	83.5
B2	75.2
B3	88.1
B5	80.9
B6	84.3
B7	42

Molecular target: T3, FZD7 receptor expressed on cells …
Assay: flow cytometry, 200 nM Fab, FZD7 over-expression line (MDA MB 231) [cont'd]
Procedure: as §2

Binder	% population within the positive gate [%]
B9	74.6
